Data from US20080234198A1 (Eli Lilly, published 2008).
Where a chain is given by its changes, count along the chain named.

T1: human VPAC2 receptor (human, UniProt P41587 24-438)
T1 construct: whole, on cells; CHO-S cell line stably expressing human VPAC2 (cAMP assays)
T1 sequence (looked up): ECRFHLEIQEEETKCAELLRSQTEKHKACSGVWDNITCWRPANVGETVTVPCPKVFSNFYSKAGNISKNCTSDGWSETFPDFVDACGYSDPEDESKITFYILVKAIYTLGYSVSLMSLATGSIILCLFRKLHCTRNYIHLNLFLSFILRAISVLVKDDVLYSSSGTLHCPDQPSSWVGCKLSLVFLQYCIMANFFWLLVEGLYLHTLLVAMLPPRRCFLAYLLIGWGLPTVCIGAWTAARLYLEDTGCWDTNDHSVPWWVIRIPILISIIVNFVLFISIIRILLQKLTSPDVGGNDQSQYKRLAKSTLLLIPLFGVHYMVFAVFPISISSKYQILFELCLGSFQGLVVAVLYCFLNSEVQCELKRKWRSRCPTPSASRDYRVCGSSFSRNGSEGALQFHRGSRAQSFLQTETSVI

T2: rat VPAC1 receptor (rat, UniProt P30083 31-459)
T2 sequence (looked up): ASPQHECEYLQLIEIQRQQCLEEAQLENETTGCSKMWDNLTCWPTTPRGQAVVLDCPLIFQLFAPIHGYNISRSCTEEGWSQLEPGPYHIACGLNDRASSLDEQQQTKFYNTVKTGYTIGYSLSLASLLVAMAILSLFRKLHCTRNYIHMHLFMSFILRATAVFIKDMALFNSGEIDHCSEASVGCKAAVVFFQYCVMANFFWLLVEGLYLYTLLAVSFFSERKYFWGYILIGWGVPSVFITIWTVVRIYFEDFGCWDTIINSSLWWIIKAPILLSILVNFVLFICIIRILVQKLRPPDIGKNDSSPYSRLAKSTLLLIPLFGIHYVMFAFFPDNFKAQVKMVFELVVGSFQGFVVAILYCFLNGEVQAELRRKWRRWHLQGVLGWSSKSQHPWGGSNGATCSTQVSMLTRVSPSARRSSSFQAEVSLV

T3: rat VPAC2 receptor (rat, UniProt P35000 23-437)
T3 sequence (looked up): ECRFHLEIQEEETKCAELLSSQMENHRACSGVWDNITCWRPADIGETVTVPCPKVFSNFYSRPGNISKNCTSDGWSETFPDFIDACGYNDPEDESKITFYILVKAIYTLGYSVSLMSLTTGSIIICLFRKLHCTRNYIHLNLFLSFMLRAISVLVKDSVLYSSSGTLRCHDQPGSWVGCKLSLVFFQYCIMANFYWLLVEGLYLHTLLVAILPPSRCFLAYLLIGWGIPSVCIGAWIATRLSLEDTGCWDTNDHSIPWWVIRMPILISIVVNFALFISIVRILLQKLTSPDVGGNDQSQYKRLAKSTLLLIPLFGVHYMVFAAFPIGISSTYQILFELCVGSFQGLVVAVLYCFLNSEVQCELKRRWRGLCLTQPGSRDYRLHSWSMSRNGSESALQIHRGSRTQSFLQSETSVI

B1: P454 (peptide)
peptide: HSDAVFTEQYTXLRXQVAAXXYLQSIXXXGGPSSGAPPPS
modifications: not fully specified; C6-HSDAVFTEQY(OMe)TOrnLRAibQVAAAibOrnYLQSIOrnK(WPEG40K)OrnGGPSSGAPPPS-NH2
B2: P505 (peptide)
peptide: B1 peptide with X28C, S40C
modifications: C6-HSDAVFTEQY(OMe)TOrnLRAibQVAAAibOrnYLQSIOrnC(PEG20K)OrnGGPSSGAPPPC(PEG20K)-NH2
B3: P499 (peptide)
peptide: B1 peptide with S40C
modifications: C6-HSDAVFTEQY(OMe)TOrnLRAibQVAAAibOrnYLQSIOrnK(CO(CH2)2SPEG20K)OrnGGPSSGAPPPC(PEG20K)-NH2
B4: P517 (peptide)
peptide: HSDAVFTEQYTXLRXQLAXXXYLQXIXXGGPSSGAPPPCC
modifications: C6-HSDAVFTEQY(OMe)TOrnLRAibQLAAbuAibOrnYLQAibIOrnOrnGGPSSGAPPPC(PEG20K)C(PEG20K)-NH2
B5: P519 (peptide)
peptide: B4 peptide with X19A, L23X
modifications: C6-HSDAVFTEQY(OMe)TOrnLRAibQLAAAibOrnYAibQAibIOrnOrnGGPSSGAPPPC(PEG20K)C(PEG20K)-NH2
B6: P521 (peptide)
peptide: B4 peptide with L23X, X25S
modifications: C6-HSDAVFTEQY(OMe)TOrnLRAibQLAAbuAibOrnYAibQSIOrnOrnGGPSSGAPPPC(PEG20K)C(PEG20K)-NH2
B7: P513 (peptide)
peptide: B4 peptide with X19A, L23X, X25S
modifications: C6-HSDAVFTEQY(OMe)TOrnLRAibQLAAAibOrnYAibQSIOrnOrnGGPSSGAPPPC(PEG20K)C(PEG20K)-NH2
B8: P470 (peptide)
peptide: HSDAVFTEQYTXXRXQVAAXXYLQSIXXGGPSSGAPPPS
modifications: C6-HSDAVFTEQY(OMe)TOrnK(CO(CH2)2SPEG20K)RAibQVAAAibOrnYLQSIOrnOrnGGPSSGAPPPS-NH2
B9: P492 (peptide)
peptide: B8 peptide with X13L, A19X, S39C
modifications: C6-HSDAVFTEQY(OMe)TOrnLRAibQVAK(CO(CH2)2SPEG20K)AibOrnYLQSIOrnOrnGGPSSGAPPPC(PEG20K)-NH2

Target: T1, human VPAC2 receptor
Assay: filter binding, VPAC2 cell membranes, displacement of 125I-VIP
Protocol: Binding assays: Membrane prepared from a stable VPAC2 cell line (see Example 3) or from cells transiently transfected with human VPAC1 or PAC1 are used.
The assay plate is filled with 25 μL assay buffer, 25 μL membranes (2.5 μg) suspended in assay buffer, 25 μL agonist in assay buffer, and 25 μL tracer (about 40000 cpm) in assay buffer. The filled plate is incubated for 1 hour with shaking.
The transfer from assay plate to filter plate is conducted. The blocking buffer is aspirated by vacuum filtration and washed two times with flush buffer. 90 μL is transferred from the assay plate to the filter plate. The 90 μL transferred from assay plate is aspirated and washed three times with 200 μL flush buffer. The plastic support is removed. It is dried for 1 hour at 60° C. 30 μL Microscint is added. The count is performed.

Row | Binder | IC50
1 | B1 | 36.6 nM
2 | B2 | 26.1 nM
3 | B3 | 34 nM
4 | B4 | 3.7 nM
5 | B5 | 51.6 nM
6 | B6 | 67.1 nM
7 | B7 | 50.5 nM
8 | B8 | 263 nM
9 | HSDAVFTEQYTXLRXQVAAXXYLQSIXXGGPSSGAPPPS (C6-HSDAVFTEQY(OMe)TOrnLRAibQVAAAibK(W-PEG40K)YLQSIOrnOrnGGPSSGAPPPS-NH2) [P410] | 264 nM
10 | HSDAVFTEQYTXLRXQCAXXXYLQXIXXGGPSSGAPPPS (C6-HSDAVFTEQY(OMe)TOrnLRAibQC(PEG40K)AAbuAibOrnYLQAibIOrnOrnGGPSSGAPPPS-NH2) [P545] | 79.9 nM
11 | B9 | 156 nM

Target: T2, rat VPAC1 receptor
Assay: cell-based or functional assay

Row | Binder | Rat VPAC1 Receptor: DiscoveRx: (EC50; nM)
12 | B1 | 1230 nM
13 | B2 | 639 nM
14 | B3 | 804 nM
15 | B4 | 92.4 nM
16 | B6 | 602 nM
17 | B8 | > 1000 nM
18 | HSDAVFTEQYTXLRXQVAAXXYLQSIXXGGPSSGAPPPS (C6-HSDAVFTEQY(OMe)TOrnLRAibQVAAAibK(W-PEG40K)YLQSIOrnOrnGGPSSGAPPPS-NH2) [P410] | > 1000 nM
19 | HSDAVFTEQYTXLRXQCAXXXYLQXIXXGGPSSGAPPPS (C6-HSDAVFTEQY(OMe)TOrnLRAibQC(PEG40K)AAbuAibOrnYLQAibIOrnOrnGGPSSGAPPPS-NH2) [P545] | 380 nM
20 | B9 | > 4000 nM

Target: T3, rat VPAC2 receptor
Assay: cell-based or functional assay

Row | Binder | Rat VPAC2 Receptor: DiscoveRx: (EC50; nM)
21 | B1 | 79.6 nM
22 | B2 | 42.6 nM
23 | B3 | 68.2 nM
24 | B4 | 10 nM
25 | B6 | 33.1 nM
26 | B8 | 111 nM
27 | HSDAVFTEQYTXLRXQVAAXXYLQSIXXGGPSSGAPPPS (C6-HSDAVFTEQY(OMe)TOrnLRAibQVAAAibK(W-PEG40K)YLQSIOrnOrnGGPSSGAPPPS-NH2) [P410] | 318 nM
28 | HSDAVFTEQYTXLRXQCAXXXYLQXIXXGGPSSGAPPPS (C6-HSDAVFTEQY(OMe)TOrnLRAibQC(PEG40K)AAbuAibOrnYLQAibIOrnOrnGGPSSGAPPPS-NH2) [P545] | 99.5 nM
29 | B9 | 963 nM

Target: T1, human VPAC2 receptor
Assay: cell-based or functional assay

Row | Binder | Human VPAC2 Receptor: Alphascreen (EC50; nM)
30 | B1 | 59.9 nM
31 | B2 | 40.5 nM
32 | B3 | 57.7 nM
33 | B4 | 7.5 nM
34 | B5 | 30.3 nM
35 | B6 | 22.1 nM
36 | B7 | 28.9 nM
37 | B8 | 83.3 nM
38 | HSDAVFTEQYTXLRXQVAAXXYLQSIXXGGPSSGAPPPS (C6-HSDAVFTEQY(OMe)TOrnLRAibQVAAAibK(W-PEG40K)YLQSIOrnOrnGGPSSGAPPPS-NH2) [P410] | 129 nM
39 | HSDAVFTEQYTXLRXQCAXXXYLQXIXXGGPSSGAPPPS (C6-HSDAVFTEQY(OMe)TOrnLRAibQC(PEG40K)AAbuAibOrnYLQAibIOrnOrnGGPSSGAPPPS-NH2) [P545] | 45 nM
40 | B9 | 510 nM
